In patent US20250332297A1, “DLL3-SPECIFIC BINDING CONSTRUCTS AND THEIR USE IN RADIOTHERAPY” (MOLECULAR PARTNERS AG, priority 2024, published 2025):
Each block holds one binder with its values, some of them ahead of it.

B2: Human DLL3-ECD (recombinant extracellular domain of human DLL3, Examples 11, 17 and 19) (Fc fusion)
chain: AGVFELQIHSFGPGPGPGAPRSPCSARLPCRLFFRVCLKPGLSEEAAESPCALGAALSARGPVYTEQPGAPAPDLPLPDGLLQVPFRDAWPGTFSFIIETWREELGDQIGGPAWSLLARVAGRRRLAAGGPWARDIQRAGAWELRFSYRARCEPPAVGTACTRLCRPRSAPSRCGPGLRPCAPLEDECEAPLVCRAGCSPEHGFCEQPGECRCLEGWTGPLCTVPVSTSSCLSPRGPSSATTGCLVPGPGPCDGNPCANGGSCSETPRSFECTCPRGFYGLRCEVSGVTCADGPCFNGGLCVGGADPDSAYICHCPPGFQGSNCEKRVDRCSLQPCRNGGLCLDLGHALRCRCRAGFAGPRCEHDLDDCAGRACANGGTCVEGGGAHRCSCALGFGGRDCRERADPCAARPCAHGGRCYAHFSGLVCACAPGYMGARCEF
modifications: biotinylated at the Avi-tag where immobilised (Examples 11 and 19)
notes: also called hDLL3-ECD; human ECD; not shown: Avi-tag and Fc knob into hole (order depends on the format)

Legend:
[1] = target: T1, Cyno DLL3-ECD (extracellular domain of cynomolgus macaque DLL3, residues 27 to 466, Avi-tag, 3C site, Fc knob … (cynomolgus macaque, UniProt A0A2K5WSR1 27-464, biotinylated at the Avi-tag (Example 11))); test: SPR (ProteOn)
T1 construct: range 27-466; also called cyno ECD; cynomolgus monkey DLL3; not shown: Avi-tag, 3C protease recognition site and Fc knob into hole
T1 sequence: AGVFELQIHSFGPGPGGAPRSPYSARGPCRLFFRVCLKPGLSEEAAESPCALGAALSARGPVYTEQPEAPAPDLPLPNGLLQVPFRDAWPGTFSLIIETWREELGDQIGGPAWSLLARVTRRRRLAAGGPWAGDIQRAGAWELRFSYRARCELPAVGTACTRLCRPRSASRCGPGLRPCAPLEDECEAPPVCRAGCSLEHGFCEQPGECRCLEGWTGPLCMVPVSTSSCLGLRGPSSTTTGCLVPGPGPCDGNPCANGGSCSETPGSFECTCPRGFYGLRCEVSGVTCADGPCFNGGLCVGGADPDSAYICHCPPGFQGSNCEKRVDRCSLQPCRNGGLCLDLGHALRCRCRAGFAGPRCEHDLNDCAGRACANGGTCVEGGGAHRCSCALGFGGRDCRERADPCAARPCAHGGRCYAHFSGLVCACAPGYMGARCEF

[2] = target: T2, Dog DLL3-NTD (truncated dog DLL3, N-Terminal Domain, residues 27-189, C-terminal 6xHis and Avi-tag) (dog, UniProt A0A8I3MXZ5 27-188, biotinylated at the Avi-tag); test: SPR (ProteOn)
T2 construct: also called dog NTD; not shown: C-terminal 6xHis and Avi-tag
T2 sequence: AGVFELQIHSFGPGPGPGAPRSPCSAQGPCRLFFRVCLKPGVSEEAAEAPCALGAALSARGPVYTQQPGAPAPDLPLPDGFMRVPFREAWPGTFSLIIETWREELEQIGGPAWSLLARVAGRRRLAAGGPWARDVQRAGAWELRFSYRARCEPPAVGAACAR

[3] = target: T3, human serum albumin (human, UniProt P02768 25-609); test: SPR (ProteOn), HSA on chip, DARPin as analyte, 1:1 Langmuir fit
T3 construct: also called HSA
Method: (§1) SPR multi-trace analyses were performed similarly as described in previous Examples.
(§2) All analytes (3-fold dilution ranging from 600-7.41 nM) were injected in succession for 240 s and dissociation was recorded for 600 s using a constant flow of 25 μl/min (HSA) or 100 μl/min (MSA) (25 μl/min).

[4] = target: T4, mouse serum albumin (mouse, UniProt P07724 25-608); test: SPR (ProteOn), MSA on chip, DARPin as analyte, 1:1 Langmuir fit
T4 construct: also called MSA
Method: as §1, §2

[5] = target: T2, Dog DLL3-NTD (truncated dog DLL3, …); test: SPR (ProteOn), biotinylated dog DLL3-NTD on chip, DARPin as analyte, 1:1 Langmuir fit
Method: (§3) The data were generated using BioRad ProteOn instrument in SPR running buffer (PBS, pH 7.4 containing 0.005% Tween 20©). […] The chip was coated with biotinylated target to reach a signal intensity of 1516 RU (human ECD), 257 RU (human NTD), 1500 RU (cyno ECD) and 228 RU (dog NTD). […] Each injection was followed by a regeneration step with 16 mM H₃PO₄ for 18 s. […] The obtained SPR traces were used to determine on-rate and off-rate interaction parameters.

[6] = target: T1, Cyno DLL3-ECD (extracellular domain of …); test: SPR (ProteOn), biotinylated cyno DLL3-ECD on chip, DARPin as analyte, 1:1 Langmuir fit
Method: as §3

[7] = target: B2; test: SPR (ProteOn), biotinylated human DLL3-ECD on chip, DARPin as analyte, 1:1 Langmuir fit
Method: as §3

[8] = target: T5, Human DLL3-NTD (truncated human DLL3, N-Terminal Domain, residues 27-189, C-terminal 6xHis and Avi-tag) (human, UniProt Q9NYJ7 27-189); test: SPR (ProteOn), biotinylated human DLL3-NTD on chip, DARPin as analyte, 1:1 Langmuir fit
T5 construct: also called hDLL3-NTD; human NTD; not shown: C-terminal 6xHis and Avi-tag
T5 sequence: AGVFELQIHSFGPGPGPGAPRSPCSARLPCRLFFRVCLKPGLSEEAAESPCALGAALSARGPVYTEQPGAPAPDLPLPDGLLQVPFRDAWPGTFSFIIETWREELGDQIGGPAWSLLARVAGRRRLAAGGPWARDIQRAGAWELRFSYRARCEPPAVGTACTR
Method: as §3

[9] = target: B2; test: SPR (ProteOn), biotinylated human DLL3-ECD on chip, DARPin as analyte, 1:1 Langmuir fit (same values as Table 14)
Method: as §3

[10] = target: T3, human serum albumin; test: SPR, HSA injected (injection 2) over immobilised hDLL3-ECD without conjugate
[11] = target: T3, human serum albumin; test: SPR (ProteOn), HSA on chip
[12] = target: T3, human serum albumin; test: SPR (ProteOn), HSA on chip, IAM-capped 2D DARPin as analyte, 1:1 Langmuir fit
[13] = target: T4, mouse serum albumin; test: SPR (ProteOn), MSA on chip, IAM-capped 2D DARPin as analyte, 1:1 Langmuir fit

T4 sequence (P07724 25-608 limits assumed): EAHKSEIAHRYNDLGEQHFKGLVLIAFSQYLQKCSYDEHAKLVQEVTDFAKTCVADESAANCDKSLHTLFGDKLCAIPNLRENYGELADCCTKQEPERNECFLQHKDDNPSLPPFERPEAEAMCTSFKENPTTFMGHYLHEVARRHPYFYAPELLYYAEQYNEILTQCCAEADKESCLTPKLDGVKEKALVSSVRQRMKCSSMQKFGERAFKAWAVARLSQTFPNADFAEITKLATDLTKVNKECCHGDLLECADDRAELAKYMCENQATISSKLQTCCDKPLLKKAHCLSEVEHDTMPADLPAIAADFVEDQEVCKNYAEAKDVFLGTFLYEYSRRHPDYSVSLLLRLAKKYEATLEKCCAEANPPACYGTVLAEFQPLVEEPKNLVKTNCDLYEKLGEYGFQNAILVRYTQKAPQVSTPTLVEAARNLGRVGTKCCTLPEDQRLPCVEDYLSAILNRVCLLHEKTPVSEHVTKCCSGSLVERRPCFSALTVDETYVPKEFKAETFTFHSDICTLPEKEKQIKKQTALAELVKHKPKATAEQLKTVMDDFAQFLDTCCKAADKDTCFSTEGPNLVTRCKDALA

- fold lower affinity than to human DLL3-ECD [1]: ~100 fold
- fold lower affinity than to human DLL3-ECD [2]: ~10 fold
- Kd [3]: 75.5 nM
- koff [3]: 0.0216 s⁻¹
- kon [3]: 286000 M⁻¹ s⁻¹
- Kd [4]: 144 nM
- koff [4]: 0.0383 s⁻¹
- kon [4]: 267000 M⁻¹ s⁻¹
- Kd [5]: 1.2 nM
- koff [5]: 5.58e-05 s⁻¹
- kon [5]: 46400 M⁻¹ s⁻¹
- Kd [6]: 22 nM
- koff [6]: 0.000978 s⁻¹
- kon [6]: 44500 M⁻¹ s⁻¹
- Kd [7]: 0.174 nM
- koff [7]: 1.45e-05 s⁻¹
- kon [7]: 83500 M⁻¹ s⁻¹
- Kd [8]: 0.263 nM
- koff [8]: 1.54e-05 s⁻¹
- kon [8]: 58700 M⁻¹ s⁻¹
- Kd [9]: 0.174 nM
- koff [9]: 1.45e-05 s⁻¹
- kon [9]: 83500 M⁻¹ s⁻¹
B1: MAM279 (SEQ ID NO: 11) with a Glycine-Serine (GS) at its N-terminal end and an N-terminal His-tag (SEQ ID NO: 19) (designed binder)
chain: MRGSHHHHHHGSDLGKKLLEAARAGQDDEVRELLKAGADVNAKDYFSHTPLHLAARNGHLKIVEVLLKAGADVNAKDFAGKTPLHLAADAGHLEIVEVLLKAGADVNAQDIFGKTPADIAADAGHEDIAEVLQKAAGSPTPTPTTPTPTPTTPTPTPTGSDLGKKLLAAAAQGQDDEVRELLKAGANVNAKDLFGYTPLHLAAWRGHLEIVEVLLKAGADVNAKDAAGETPLHLAAWFGHLEIVEVLLKAGADVNAQDLQGKTPADLAAKEGHEDIAEVLQKAA
notes: also called unconjugated MAM279

Binder: B2
- binding result [10]: no binding (tested: 1000 nM)

- fold higher binding affinity than the Low HSA affinity 2D DARPin [11]: ~10 fold
- Kd [12]: 295 nM
- koff [12]: 0.0311 s⁻¹
- kon [12]: 105000 M⁻¹ s⁻¹
- Kd [13]: 259 nM
- koff [13]: 0.0345 s⁻¹
- kon [13]: 133000 M⁻¹ s⁻¹
B3: High HSA affinity 2D DARPin (SEQ ID NO: 17), Cysteine capped with iodoacetamide (designed binder)
chain: GSDLGKKLLEAARAGQDDEVRELLKAGADVNAKDYFSHTPLHLAARNGHLKIVEVLLKAGADVNAKDFAGKTPLHLAADAGHLEIVEVLLKAGADVNAQDIFGKTPADIAADAGHEDIAEVLQKAAGSPTPTPTTPTPTPTTPTPTPTGSDLGTKLLSAAADGQDDEVRELLQAGADVNAKDLFGYTPLHLAAWRGHLEIVEVLLEAGADVNAKDAAGLTPLHLAAWFGHLEIVEVLLEAGADVNAQDVQGVTPADLAAKEGHEDIAEVLQQAAGSGSC
modifications: free C-terminal Cysteine capped with Iodoacetamide (IAM)
notes: MAM160 with GS at the N-terminus and a Cysteine-containing tag at the C-terminus, without His-tag; also called GS-MAM160-tag
